Laboratory results from US20220273733A1.

B1: EndoBI-1 (endo-β-N-acetylglucosaminidase from B. infantis), enzyme solution used in Example 1 (enzyme)
chain: DAVSPTQETIQSTGRHFMVYYRAWRDVTMKGVNTDLPDDNWISMYDIPYGVDVVNIFSYVPSGQEEQAQPFYDKLKSDYAPYLHSRGIKLVRGIDYTGVAVNGFRTFMKEQNKTESEATEADYDAYAKQVIDKYMISVGLDGLDIDMEAHPNDADVKISDNVIRALSKHIGPKSAKPDTTMFLYDTNGSYLNPFKNVAECFDYVAYQQYGSSSDRTARAAADYQPYIGNEFVPGLTFPEEGDMNNRWYDATEPYEESHFYQVASYVREHNLGGMFVYALDRDGRNYDEDLRRIVPSNLLWTKTAIAESEGMALDTAKTAANHYLDRMSLRQVIDDNAASADKARDMVGKAANLYETNKAVLGGDYGEGFSNTYDPTLEAGLLGIDISVLQQQIDKSSEIIGADTAESDAKTALRMARDAAIDGLTGKIYTADQVSAWSQALKAALDATVPVPTPDSTDQNGNRDKVTNHKVQGQPKQLSATGISTDIIVAVGVTLAIAGVALSLSRKLS
B2: EndoBI-1 of B. infantis EVC001 as acting in the gut of EVC001-fed infants (enzyme)
chain: B1 chain

Columns and labels:
[1] = target: soymeal proteins (ethanol-precipitated, heat-denatured soy-meal protein mixture)
[2] = target: lactoferrin (glycosylated, of human milk) (human) (UniProt P02788)

| Binder | Glycan Yield (ug), released glycans measured by phenol sulphuric total carbohydrate assay [1] [µg] | N-glycans in fecal samples (nano-HPLC-Chip-TOF) compared with the lactoferrin N-glycan library (out of 18 N-glycans) [2] |
| --- | --- | --- |
| B1 | 75 |  |
| B2 |  | 14 |
